# From patent US20240109965A1 (Ablynx, published 2024)
# Numbering of substitutions follows the chain as printed.
# T1: cynomolgus TCRαβ-zipper protein (cynomolgus)
# T1 construct: also called cyTCR(AEA41865)-zipper; CynoTCRαβ-zipper
# T1 TCR alpha: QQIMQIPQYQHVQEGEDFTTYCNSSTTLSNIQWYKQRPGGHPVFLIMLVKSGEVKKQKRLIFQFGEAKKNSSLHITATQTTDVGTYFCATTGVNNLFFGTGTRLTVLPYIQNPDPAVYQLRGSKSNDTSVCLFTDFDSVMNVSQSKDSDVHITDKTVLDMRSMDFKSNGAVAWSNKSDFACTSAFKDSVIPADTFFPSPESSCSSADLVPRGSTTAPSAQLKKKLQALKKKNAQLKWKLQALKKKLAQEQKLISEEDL
# T1 TCR beta: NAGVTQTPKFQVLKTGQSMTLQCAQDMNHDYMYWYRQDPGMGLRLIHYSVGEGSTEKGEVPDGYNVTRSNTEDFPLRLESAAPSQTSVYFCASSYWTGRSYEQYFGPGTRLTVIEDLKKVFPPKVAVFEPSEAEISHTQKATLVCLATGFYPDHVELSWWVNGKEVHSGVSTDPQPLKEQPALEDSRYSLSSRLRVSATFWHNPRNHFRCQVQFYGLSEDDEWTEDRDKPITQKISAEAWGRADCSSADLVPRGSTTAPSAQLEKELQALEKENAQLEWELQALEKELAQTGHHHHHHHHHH
# B1: T017001028 (bispecific antibody)
# chain: EVQLVESGGGVVQPGGSLRLSCAASGTTLDYYVIGWFRQAPGKEREGVSCISSSDGYTYYADSVKGRFTISRDNAKNTVYLQMNSLRPEDTALYYCATDPYYSSCHPFFADYEYDYWGQGTLVTVSSGGGGSGGGSEVQLVESGGGVVQPGGSLRLSCVASGYVHKINFYGWYRQAPGKEREKVAHISIGDQTDYAESAKGRFTISRDESKNTVYLQMNSLRPEDTAAYYCRALSRIYPYDYWGQGTLVTVSSGGGGSGGGSEVQLVESGGGVVQPGGSLRLSCAASGFTFRSFGMSWVRQAPGKGPEWVSSISGSGSDTLYADSVKGRFTISRDNSKNTLYLQMNSLRPEDTALYYCTIGGSLSRSSQGTLVTVSS
# B2: T017001030 (bispecific antibody)
# chain: B1 chain with Y238S
# B3: T017001027 (bispecific antibody)
# chain: B1 chain with E197D, Y238W
# B4: T017001022 (bispecific antibody)
# chain: DVQLVESGGGVVQPGGSLRLSCVASGYVHKINFYGWYRQAPGKEREKVAHISIGDQTDYADSAKGRFTISRDESKNTVYLQMNSLRPEDTAAYYCRALSRIWPYDYWGQGTLVTVSSGGGGSGGGSEVQLVESGGGVVQPGGSLRLSCAASGTTLDYYVIGWFRQAPGKEREGVSCISSSDGYTYYADSVKGRFTISRDNAKNTVYLQMNSLRPEDTALYYCATDPYYSSCHPFFADYEYDYWGQGTLVTVSSGGGGSGGGSEVQLVESGGGVVQPGGSLRLSCAASGFTFRSFGMSWVRQAPGKGPEWVSSISGSGSDTLYADSVKGRFTISRDNSKNTLYLQMNSLRPEDTALYYCTIGGSLSRSSQGTLVTVSS
# B5: T017001026 (bispecific antibody)
# chain: B4 chain with D61E, W102Q
# B6: T017001025 (bispecific antibody)
# chain: B4 chain with D61E, W102S
# B7: T017001024 (bispecific antibody)
# chain: B4 chain with D61E, W102T
# B8: T017001023 (bispecific antibody)
# chain: B4 chain with D61E, W102Y
# B9: T017001031 (bispecific antibody)
# chain: B1 chain with Y238Q
# B10: T017001029 (bispecific antibody)
# chain: B1 chain with Y238T
# B11: T017000700 (VHH)
# VHH: EVQLVESGGGVVQPGGSLRLSCVASGYVHKINFYGWYRQAPGKEREKVAHISIGDQTDYADSAKGRFTISRDESKNTVYLQMNSLRPEDTAAYYCRALSRIWPYDYWGQGTLVTVSS
# B12: T017000978 (VHH)
# VHH: B11 VHH with D61E, W102Y
# notes: also called T01700978
# B13: T017000980 (VHH)
# VHH: B11 VHH with D61Q, W102Y
# B14: T017000967 (VHH)
# VHH: B11 VHH with W102Y
# B15: T017000981 (VHH)
# VHH: B11 VHH with D61S, W102Y
# B16: T017000995 (VHH)
# VHH: B11 VHH with D61E, W102Q
# B17: T017000944 (VHH)
# VHH: B11 VHH with D61V
# B18: T017000938 (VHH)
# VHH: B11 VHH with D61P
# B19: T017001001 (VHH)
# VHH: B11 VHH with D61E, W102T
# B20: T017000945 (VHH)
# VHH: B11 VHH with D61E
# B21: T017000951 (VHH)
# VHH: B11 VHH with D61S
# B22: T017000999 (VHH)
# VHH: B11 VHH with D61E, W102S
# notes: also called T01700999
# B23: T017000946 (VHH)
# VHH: B11 VHH with D61A
# B24: T017000949 (VHH)
# VHH: B11 VHH with D61Q
# B25: T017000977 (VHH)
# VHH: B11 VHH with D61V, W102Y
# B26: T017000940 (VHH)
# VHH: B11 VHH with D61R
# B27: T017000979 (VHH)
# VHH: B11 VHH with D61A, W102Y
# B28: T017000976 (VHH)
# VHH: B11 VHH with D61R, W102Y
# Target: human T cell receptor (TCRαβ) on primary human T cells (human)
# Sequence (P0DTU3 134-275, chain 1 of 2): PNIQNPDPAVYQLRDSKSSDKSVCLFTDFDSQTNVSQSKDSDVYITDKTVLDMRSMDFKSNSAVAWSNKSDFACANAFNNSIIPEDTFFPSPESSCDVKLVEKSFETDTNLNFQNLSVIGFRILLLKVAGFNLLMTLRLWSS
# Sequence (P01850 other isoform, or with tags, fused parts or gaps, chain 2 of 2, further chain): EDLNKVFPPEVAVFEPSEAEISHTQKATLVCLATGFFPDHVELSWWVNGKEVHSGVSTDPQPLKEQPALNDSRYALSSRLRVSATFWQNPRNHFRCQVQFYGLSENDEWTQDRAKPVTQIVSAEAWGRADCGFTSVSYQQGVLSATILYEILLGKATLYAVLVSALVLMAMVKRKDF
# Experiment: cell-based or functional assay
Binder,"EC50 (M), human T cell mediated MOLM-13 cell killing, Donor #1 [M]","EC50 (M), human T cell mediated MOLM-13 cell killing, Donor #2 [M]"
B1,6.7e-10,3.2e-09
B2,5.8e-09,
B3,5.7e-10,2.8e-09
B4,1.5e-11,1.4e-10
B5,3.4e-10,4.4e-09
B6,6.6e-11,3.4e-10
B7,,9.8e-10
B8,2.4e-11,1.1e-10

# Target: T1, cynomolgus TCRαβ-zipper protein
# Experiment: SPR Biacore 8K+, multi-cycle kinetics, TCR-zipper immobilized
# Method: Binding of purified TCE-CD123-ALB and CD123-TCE-ALB ISVD constructs to human TCRαβ-zipper protein (huTCR(2XN9)-zipper, in-house produced) and cynomolgus TCRαβ-zipper protein (cyTCR(AEA41865)-zipper, in-house produced) was probed by Surface Plasmon Resonance (SPR) (Cytiva, Biacore 8K+). Both targets were immobilized on a CM5 sensor chip using standard amine coupling chemistry. […] Each concentration of the ISVDs was injected for 180s and dissociation was assessed during 600s.
# Data was double referenced by subtracting a reference flow cell (FC) and a blank buffer injection. Affinity constants (ka, kd and KD) were calculated applying the Langmuir 1:1 interaction model using the Biacore Insight Evaluation Software (Cytiva, Version 3.0.12.15655).
row,Kd [nM],Binder
1,400,B1
2,18000,B9
3,3600,B2
4,190,B3
5,9100,B10
6,15,B4
7,3900,B5
8,780,B6
9,2400,B7
10,37,B8

# Target: T1, cynomolgus TCRαβ-zipper protein
# Experiment: SPR ProteOn XPR36, multi-cycle kinetics, TCR-zipper immobilized;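 also: monovalent His-tagged ISVD constructs flowed at six concentrations over amine-coupled TCR on a GLC chip, 120 s association, 600 s dissociation, double-referenced, fitted to 1:1 Langmuir model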
# Method: Binding of purified, monovalent TCE-FLAG3-HIS6 and TCE-HIS6 ISVD constructs to human TCRαβ-zipper protein (huTCR(2XN9)-zipper, in-house produced) and cynomolgus TCRαβ-zipper protein (cyTCR(AEA41865)-zipper, in-house produced) was probed by Surface Plasmon Resonance (SPR) (Bio-rad Laboratories, Inc., ProteOn XPR36). Both targets were immobilized on a GLC sensor chip (short matrix, normal capacity) using standard amine coupling chemistry. ISVD constructs were injected at 6 different concentrations in a multi-cycle kinetics (MCK) experiment. Each concentration of the ISVDs was injected for 120s and dissociation was assessed during 600s.
# Data was double referenced by subtracting a reference analyte lane and a blank buffer injection. Affinity constants (ka, kd and KD) were calculated applying the Langmuir 1:1 interaction model using the ProteOn Manager 3.1.0 (Bio-rad Laboratories, Inc., Version 3.1.0.6).
Kd [nM],KD ratio cy/huTCR,KD ratio vs ref,koff [s⁻¹],kon [M⁻¹ s⁻¹],Binder
8,,,,,B11
20,4,2.5,0.0033,170000,B12
17,4,2.1,0.0034,210000,B13
14,3.1,1.7,0.0028,200000,B14
17,3.8,2.1,0.0035,210000,B15
2000,2,246,0.093,47000,B16
7,3,0.9,0.0019,280000,B17
6.7,3.2,0.8,0.0019,280000,B18
1100,3.1,133,0.034,32000,B19
7.1,3.1,0.9,0.0018,260000,B20
7.4,3,0.9,0.002,260000,B21
350,2.5,43,0.018,51000,B22
7,3.1,0.9,0.0019,270000,B23
6.8,3.2,0.8,0.0019,280000,B24
19,4.3,2.4,0.0035,180000,B25
6.1,3.2,0.8,0.0019,320000,B26
19,3.8,2.3,0.0035,180000,B27
15,3.9,1.9,0.0035,230000,B28
